The results in this text go back to patent publication US20150344570A1 (published 2015).

For test [1], the target named is T1, FcγRIIIa (human, UniProt P08637 17-208).
T1 construct: extracellular domain; also called FcgRIIIa; CD16A; not shown: His tag attached to the C terminus
Kind of test: SPR (Biacore), antibody captured on antigen-peptide chip, FcγR as analyte; relative binding amount. From the text:
The expression vectors for the respective H chains were combined in a way that each of the alterations L234Y, G236W, S298A, S239D, A330L, and I332E is present in the same H chain as P329R or in the different H chain from P329R, and the expression vector GpL16-k0 for the L chain was combined with them. Antibodies of interest were expressed and prepared according to the method described in Reference Example 1. The prepared antibodies were used to assay the FcγRIIIa-binding activity. The result of assessment using P329R on the direction of FcγRIIIa recognition by L234Y, G236W, S298A, S239D, A330L, and I332E is summarized in Table 12.
Analysis of interaction between objective antibody and the FcγR was carried out using Biacore T100 (GE Healthcare). HBS-EP+ (GE Healthcare) was used as the running buffer, and the measurement temperature was set to 25° C. Chips produced by immobilizing the antigen peptide by the amine coupling method to a Series S Sencor Chip CM5 (GE Healthcare), or alternatively, chips produced by allowing preliminarily biotinylated antigen peptides to interact with and immobilize onto a Series S Sensor Chip SA (certified) (GE Healthcare) were used. Antibodies of interest were captured onto an antigen peptide-immobilized chip, and allowed to interact to each FcγR diluted with running buffer. To regenerate and repeatedly use the chip, the antibodies captured on the chip were washed off by reacting 10 mM glycine-HCl, pH 1.5.

For test [2], the target named is FcγRIIIa F (human, UniProt P08637 17-208). Kind of test: SPR (Biacore), KD. (SPR reads the build-up and loss of mass on a sensor chip optically.)
FcγRIIIa F, sequence (P08637 17-208): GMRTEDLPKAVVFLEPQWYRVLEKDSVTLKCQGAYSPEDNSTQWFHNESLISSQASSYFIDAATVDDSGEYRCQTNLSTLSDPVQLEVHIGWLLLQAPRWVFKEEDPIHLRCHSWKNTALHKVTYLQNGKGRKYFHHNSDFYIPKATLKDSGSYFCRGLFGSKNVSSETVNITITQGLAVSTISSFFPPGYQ

Changes are numbered by the printed parent chain. Names may count otherwise.

T1 sequence (P08637 17-208): as above

B1: GpH7-A5/GpH7-HA5/GpL16-k0 (antibody, human IgG1, kappa)
heavy 1: not shown
heavy 2: QVQLVQSGAEVKKPGASVTVSCKASGYTFTDYEMHWIRQPPGEGLEWIGAIDPKTGDTAYSESFQDRVTLTADKSTSTAYMELSSLTSEDTAVYYCTRFYSYTYWGQGTLVTVSSASTKGPSVFPLAPSSKSTSGGTAALGCLVKDYFPEPVTVSWNSGALTSGVHTFPAVLQSSGLYSLSSVVTVPSSSLGTQTYICNVNHKPSNTKVDKKVEPKSCDKTHTCPPCPAPEYLGGPSVFLFPPKPKDTLMISRTPEVTCVVVDVSHEDPEVKFNWYVDGVEVHNAKTKPREEQYNSTYRVVSVLTVLHQDWLNGKEYKCKVSNKALRAPIEKTISKAKGQPREPQVYTLPPSRDELTKNQVSLTCLVKGFYPSDIAVEWESNGQPENNYKTTPPVLDSDGSFFLYSKLTVDKSRWQQGNVFSCSVMHEALHNHYTQESLSLSP
light: DIVMTQSPLSLPVTPGEPASISCQASESLVHSNRNTYLHWYLQKPGQSPQLLIYKVSNRFSGVPDRFSGSGSGTDFTLKISRVEAEDVGVYYCSQNTHVPPTFGQGTKVEIERTVAAPSVFIFPPSDEQLKSGTASVVCLLNNFYPREAKVQWKVDNALQSGNSQESVTEQDSKDSTYSLSSTLTLSKADYEKHKVYACEVTHQGLSSPVTKSFNRGEC
notes: Anti-glypican-3 IgG1 heterodimer; L234Y and P329R in H2
Take B1: in test [1], the “FcγRIIIa BINDING ACTIVITY (relative)” value was 60 relative, GpH7-A5/GpH7-B3/GpL16-k0 = 100.

B2: GpH7-A53/GpH7-B78/GpL16-k0 (antibody, human IgG1, kappa)
heavy 1: B1 heavy 2 with Y232L, S237D, R327P, D354K, H433R, E437K
heavy 2: B1 heavy 2 with Y232L, S237D, R327P, A328L, I330E
light: B1 light
notes: S239D in one H chain, S239D/A330L/I332E in the other
Regarding B2, the “fold decrease of FcγRIIIa-binding activity against GpH7-A57/GpH7-B78/GpL16-k0” value in test [2] was 1.8 times.

B3: GpH7-TA7/GpH7-B78/GpL16-k0 (antibody, human IgG1, kappa)
heavy 1: B1 heavy 2 with G234W, S296A, R327P, D354K, H433R, E437K
heavy 2: B1 heavy 2 with Y232L, S237D, R327P, A328L, I330E
light: B1 light
notes: L234Y/G236W/S298A in one H chain, S239D/A330L/I332E in the other
Take B3: the “fold FcγRIIIa binding against GpH7-A5/GpH7-B78/GpL16-k0” value in test [2] was ≥ 10 times.

B4: GpH7-A5/GpH7-HA15/GpL16-k0 (antibody, human IgG1, kappa)
heavy 1: not shown
heavy 2: B1 heavy 2 with Y232L, A328L
light: B1 light
notes: Anti-glypican-3 IgG1 heterodimer; A330L and P329R in H2
Regarding B4, in test [1], the “FcγRIIIa BINDING ACTIVITY (relative)” value is 32 relative, GpH7-A5/GpH7-B3/GpL16-k0 = 100.

B5: GpH7-A48/GpH7-B3-20-08L/GpL16-k0 (antibody, human IgG1, kappa)
heavy 1: B1 heavy 2 with Y232L, D354K, H433R, E437K
heavy 2: not shown
light: B1 light
notes: Anti-glypican-3 IgG1 heterodimer; P329R in H1, A330L in H2
As to B5, the “FcγRIIIa BINDING ACTIVITY (relative)” value in test [1] is 60 relative, GpH7-A5/GpH7-B3/GpL16-k0 = 100.

B6: GpH7-A48/GpH7-B3-01-15Y/GpL16-k0 (antibody, human IgG1, kappa)
heavy 1: B1 heavy 2 with Y232L, D354K, H433R, E437K
heavy 2: not shown
light: B1 light
notes: Anti-glypican-3 IgG1 heterodimer; P329R in H1, L234Y in H2
With B6, in test [1], the “FcγRIIIa BINDING ACTIVITY (relative)” value was 11 relative, GpH7-A5/GpH7-B3/GpL16-k0 = 100.

B7: GpH7-A48/GpH7-B3-03-20W/GpL16-k0 (antibody, human IgG1, kappa)
heavy 1: B1 heavy 2 with Y232L, D354K, H433R, E437K
heavy 2: not shown
light: B1 light
notes: Anti-glypican-3 IgG1 heterodimer; P329R in H1, G236W in H2
With B7, the “FcγRIIIa BINDING ACTIVITY (relative)” value in test [1] is 13 relative, GpH7-A5/GpH7-B3/GpL16-k0 = 100.

B8: GpH7-A48/GpH7-B3-06-09D/GpL16-k0 (antibody, human IgG1, kappa)
heavy 1: B1 heavy 2 with Y232L, D354K, H433R, E437K
heavy 2: not shown
light: B1 light
notes: Anti-glypican-3 IgG1 heterodimer; P329R in H1, S239D in H2
For the molecule B8, the “FcγRIIIa BINDING ACTIVITY (relative)” value in test [1] was 123 relative, GpH7-A5/GpH7-B3/GpL16-k0 = 100.

B9: GpH7-A5/GpH7-HA18/GpL16-k0 (antibody, human IgG1, kappa)
heavy 1: not shown
heavy 2: B1 heavy 2 with Y232L, I330E
light: B1 light
notes: Anti-glypican-3 IgG1 heterodimer; I332E and P329R in H2
In the case of B9, the “FcγRIIIa BINDING ACTIVITY (relative)” value in test [1] is 35 relative, GpH7-A5/GpH7-B3/GpL16-k0 = 100.

B10: GpH7-A5/GpH7-HA11/GpL16-k0 (antibody, human IgG1, kappa)
heavy 1: not shown
heavy 2: B1 heavy 2 with Y232L, S296A
light: B1 light
notes: Anti-glypican-3 IgG1 heterodimer; S298A and P329R in H2
Turning to B10, the “FcγRIIIa BINDING ACTIVITY (relative)” value in test [1] was 84 relative, GpH7-A5/GpH7-B3/GpL16-k0 = 100.

B11: GpH7-A5/GpH7-HA6/GpL16-k0 (antibody, human IgG1, kappa)
heavy 1: not shown
heavy 2: B1 heavy 2 with Y232L, G234W
light: B1 light
notes: Anti-glypican-3 IgG1 heterodimer; G236W and P329R in H2
Regarding B11, the “FcγRIIIa BINDING ACTIVITY (relative)” value in test [1] was 56 relative, GpH7-A5/GpH7-B3/GpL16-k0 = 100.

B12: GpH7-A48/GpH7-B3-15-02A/GpL16-k0 (antibody, human IgG1, kappa)
heavy 1: B1 heavy 2 with Y232L, D354K, H433R, E437K
heavy 2: not shown
light: B1 light
notes: Anti-glypican-3 IgG1 heterodimer; P329R in H1, S298A in H2
Take B12: the “FcγRIIIa BINDING ACTIVITY (relative)” value in test [1] was 47 relative, GpH7-A5/GpH7-B3/GpL16-k0 = 100.

B13: GpH7-A48/GpH7-B3-22-10E/GpL16-k0 (antibody, human IgG1, kappa)
heavy 1: B1 heavy 2 with Y232L, D354K, H433R, E437K
heavy 2: not shown
light: B1 light
notes: Anti-glypican-3 IgG1 heterodimer; P329R in H1, I332E in H2
Regarding B13, in test [1], the “FcγRIIIa BINDING ACTIVITY (relative)” value is 189 relative, GpH7-A5/GpH7-B3/GpL16-k0 = 100.
